Data: US20240327534A1 (HARPOON THERAPEUTICS, published 2024)
Changes are numbered by the printed parent chain.

T1: human BCMA on BCMA expressing cell lines (human, UniProt Q02223 1-184)
T1 sequence: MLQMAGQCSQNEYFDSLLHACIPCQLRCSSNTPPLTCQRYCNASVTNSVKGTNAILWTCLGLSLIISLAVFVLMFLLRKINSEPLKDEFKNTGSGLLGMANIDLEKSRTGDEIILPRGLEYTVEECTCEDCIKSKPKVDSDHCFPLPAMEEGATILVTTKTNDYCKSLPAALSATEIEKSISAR

T2: human BCMA protein (human, UniProt Q02223 1-54, limits assumed)
T2 sequence: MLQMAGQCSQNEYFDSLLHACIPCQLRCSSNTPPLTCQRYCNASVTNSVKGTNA

B1: BCMA targeting trispecific protein 01F07 (other, not shown: large carriers; small tags and cut ends)
VHH: EVQLVESGGGLVQPGRSLTLSCAASTNIFSTSPMGWYRQAPGKQRELVAAIHGFSTIYADSVKGRFTISRDNAKNSIYLQMNSLRPEDTALYYCNKVPWGDYHPGNVYWGQGTQVTVSS
notes: trispecific; also called 01F07 TriTAC
B2: BCMA targeting trispecific protein 02E03 (other)
VHH: B1 VHH with T31N, F54P, I57L, G105R, Y108T
notes: trispecific; not shown: anti-albumin domain, anti-CD3 domain and the linkers of the trispecific (TriTAC) chain; the C-terminal 6xHis tag follows these missing domains and is left out
B3: BCMA targeting trispecific protein 02B07 (other)
VHH: B1 VHH with T31S, F54H, I57L, G105R, Y108T
notes: trispecific; not shown: anti-albumin domain, anti-CD3 domain and the linkers of the trispecific (TriTAC) format
B4: BCMA targeting trispecific protein 02E05 (other)
VHH: B1 VHH with T31R, F54I, I57L
notes: trispecific; also called 02E05 TriTAC; not shown: the C-terminal 6xHis tag follows those domains and is left out
B5: BCMA targeting trispecific protein 02F03 (other, not shown: large carriers; small tags and cut ends)
VHH: B1 VHH with T31I, S32Y, F54S, I57L, G105K
notes: trispecific
B6: BCMA targeting trispecific protein 02F05 (other, not shown: large carriers; small tags and cut ends)
VHH: B1 VHH with T31V, F54N, I57L, D101K, G105R
notes: trispecific
B7: BCMA targeting trispecific protein 02F06 (other, not shown: large carriers; small tags and cut ends)
VHH: B1 VHH with T31I, S32T, F54E, I57L, D101R, G105R
notes: trispecific
B8: BCMA targeting trispecific protein 02G11 (other, not shown: large carriers; small tags and cut ends)
VHH: B1 VHH with F29D, T31I, F54S, I57L, G105R, Y108T
notes: trispecific
B9: BCMA targeting trispecific protein 02H11 (other)
VHH: B1 VHH with F29T, T31I, F54E, I57L, G105R
notes: trispecific; not shown: the C-terminal 6xHis tag follows those domains and is left out
B10: BCMA targeting trispecific protein 02G08 (other, not shown: large carriers; small tags and cut ends)
VHH: B1 VHH with F29D, T31I, F54E, I57L, G105R, Y108T
notes: trispecific
B11: BCMA targeting trispecific protein 02B06 (other, not shown: large carriers; small tags and cut ends)
VHH: B1 VHH with T31N, I57L
notes: trispecific; also called 02B06 TriTAC
B12: BCMA targeting trispecific protein 02A07 (other, not shown: large carriers; small tags and cut ends)
VHH: B1 VHH with T31K, F54N, I57L, G105R, N106E
notes: trispecific
B13: BCMA targeting trispecific protein 02C03 (other)
VHH: B1 VHH with F29A, T31I, F54S, I57L
notes: trispecific; not shown: the C-terminal His6 follows those missing domains and is left out
B14: BCMA targeting trispecific protein 02F02 (other)
VHH: B1 VHH with T31K, F54S, I57L
notes: trispecific; also called 02F02 TriTAC; not shown: The C-terminal 6xHis tag is left out because it follows these missing domains
B15: BCMA targeting trispecific protein 02F11 (other)
VHH: B1 VHH with F54T, I57L, G105R, Y108Q
notes: as for B3
B16: BCMA targeting trispecific protein 02G06 (other, not shown: large carriers; small tags and cut ends)
VHH: B1 VHH with T31G, F54N, I57L
notes: trispecific
B17: BCMA targeting trispecific protein 02G07 (other, not shown: large carriers; small tags and cut ends)
VHH: B1 VHH with T31I, S32T, F54E, I57L, G105R, N106D
notes: trispecific
B18: BCMA targeting trispecific protein 01G08 (other, not shown: large carriers; small tags and cut ends)
VHH: B1 VHH with F29Q, T31I, S55E, I57L
notes: trispecific; also called 01G08 TriTAC
B19: BCMA targeting trispecific protein 02F07 (other)
VHH: B1 VHH with F29E, T31I, I57L
notes: as for B13
B20: BCMA targeting trispecific protein 02D06 (other, not shown: large carriers; small tags and cut ends)
VHH: B1 VHH with F29S, T31I, I57V, D101R, G105R
notes: trispecific
B21: BCMA targeting trispecific protein 02G09 (other)
VHH: B1 VHH with T31D, I57L, G105R, Y108A
notes: trispecific; not shown: The C-terminal 6xHis tag is left out because it follows these missing domains
B22: BCMA targeting trispecific protein 02H05 (other)
VHH: B1 VHH with I28Q, T31I, F54K, I57L, G105R, Y108V
notes: as for B21
B23: BCMA targeting trispecific protein 02E06 (other, not shown: large carriers; small tags and cut ends)
VHH: B1 VHH with T31D, I57F
notes: trispecific; also called 02E06 TriTAC
B24: BCMA targeting trispecific protein 02G01 (other)
VHH: B1 VHH with T31I, S32N, S55D, I57L, G105R, Y108S
notes: trispecific; not shown: the C-terminal 6xHis tag follows those missing domains and is left out
B25: BCMA targeting trispecific protein 02A08 (other, not shown: large carriers; small tags and cut ends)
VHH: B1 VHH with T31R, F54E, I57L, D101R
notes: trispecific
B26: BCMA targeting trispecific protein 02A05 (other, not shown: large carriers; small tags and cut ends)
VHH: B1 VHH with F29A, T31I, F54K, I57L
notes: trispecific
B27: BCMA targeting trispecific protein 02G05 (other, not shown: large carriers; small tags and cut ends)
VHH: B1 VHH with F29T, T31I, F54N, I57L
notes: trispecific
B28: BCMA targeting trispecific protein 01H09 (other)
VHH: B1 VHH with F29M, T31I, F54N, I57L
notes: as for B13
B29: BCMA targeting trispecific protein 02B12 (other, not shown: large carriers; small tags and cut ends)
VHH: B1 VHH with F29S, T31I, S55D, I57L, G105R
notes: trispecific
B30: BCMA targeting trispecific protein 02A04 (other)
VHH: B1 VHH with T31Q, F54K, I57L, G105S, Q111K
notes: as for B21
B31: BCMA targeting trispecific protein 02C05 (other)
VHH: B1 VHH with T31E, S55T, I57L, G105R, Y108T
notes: as for B2
B32: BCMA targeting trispecific protein 02H06 (other)
VHH: B1 VHH with F29R, T31I, F54S, I57L, G105R, Y108V
notes: as for B21
B33: BCMA targeting trispecific protein 02B04 (other)
VHH: B1 VHH with G105L
notes: as for B24
B34: BCMA targeting trispecific protein 02H09 (other, not shown: large carriers; small tags and cut ends)
VHH: B1 VHH with T31R, F54S, I57L
notes: trispecific
B35: BCMA targeting trispecific protein 02B11 (other)
VHH: B1 VHH with F29V, T31I, F54D, I57L, G105R, Y108S
notes: as for B3
B36: BCMA targeting trispecific protein 02B01 (other, not shown: large carriers; small tags and cut ends)
VHH: B1 VHH with T31N, F54R, I57L, G105R, Y108M
notes: trispecific
B37: BCMA targeting trispecific protein 02H04 (other)
VHH: B1 VHH with T31V, F54N, I57L, G105R
notes: as for B9
B38: BCMA targeting trispecific protein 01H08 (other)
VHH: B1 VHH with F29M, T31I, I57V
notes: trispecific; also called 01H08 TriTAC; not shown: the C-terminal His6 follows those missing domains and is left out
B39: BCMA targeting trispecific protein 01H11 (other, not shown: large carriers; small tags and cut ends)
VHH: B1 VHH with A23V, I57L
notes: trispecific
B40: BCMA targeting trispecific protein 02C06 (other, not shown: large carriers; small tags and cut ends)
VHH: B1 VHH with F54T, I57L
notes: trispecific
B41: BCMA targeting trispecific protein 02F12 (other, not shown: large carriers; small tags and cut ends)
VHH: B1 VHH with F29E, T31I, F54T, I57L
notes: trispecific
B42: BCMA targeting trispecific protein 02A11 (other)
VHH: B1 VHH with I28H, T31I, F54S, I57L, G105R, N106V
notes: trispecific; also called 02All; not shown: the C-terminal 6xHis tag follows those domains and is left out
B43: BCMA targeting trispecific protein 02C01 (other)
VHH: B1 VHH with F29I, T31I, F54A, I57L
notes: trispecific; not shown: anti-albumin domain, anti-CD3 domain and the linkers of the trispecific; the C-terminal His6 that follows them is left out
B44: BCMA targeting trispecific protein 01H10 (other)
VHH: B1 VHH with F29P, T31I, F54E, I57L, G105R
notes: as for B21
B45: BCMA targeting trispecific protein 02D11 (other)
VHH: B1 VHH with I28E, T31I, F54E, I57L
notes: as for B13
B46: BCMA targeting trispecific protein 02E09 (other, not shown: large carriers; small tags and cut ends)
VHH: B1 VHH with I28D, T31I, F54G, I57L, G105R, Y108A
notes: trispecific
B47: BCMA targeting trispecific protein 02H01 (other, not shown: large carriers; small tags and cut ends)
VHH: B1 VHH with T31K, F54S, I57L, G105R
notes: trispecific

Target: T1, human BCMA on BCMA expressing cell lines
Assay: cell-based or functional assay

Binder | TDCC EC50 (EJM cells)
B1 | 0.000702 nM
B2 | 0.0165 nM
B3 | 0.0142 nM
B4 | 0.00137 nM
B5 | 0.0245 nM
B6 | 0.003 nM
B7 | 0.0193 nM
B8 | 0.0238 nM
B9 | 0.0775 nM
B10 | 0.0286 nM
B11 | 0.00165 nM
B12 | 0.0279 nM
B13 | 0.00252 nM
B14 | 0.00136 nM
B15 | 0.0152 nM
B16 | 0.00339 nM
B17 | 0.0446 nM
B18 | 0.00191 nM
B19 | 0.00259 nM
B20 | 0.0428 nM
B21 | 0.0396 nM
B22 | 0.0389 nM
B23 | 0.00157 nM
B24 | 0.0108 nM

Binder | TDCC EC50 (EJM cells)
B25 | 0.0201 nM
B26 | 0.00421 nM
B27 | 0.00433 nM
B28 | 0.00221 nM
B29 | 0.124 nM
B30 | 0.0382 nM
B31 | 0.0162 nM
B32 | 0.0319 nM
B33 | 0.0113 nM
B34 | 0.00288 nM
B35 | 0.0144 nM
B36 | 0.0518 nM
B37 | 0.0599 nM
B38 | 0.000341 nM
B39 | 0.00317 nM
B40 | 0.00195 nM
B41 | 0.00314 nM
B42 | 0.0606 nM
B43 | 0.00155 nM
B44 | 0.0352 nM
B45 | 0.00235 nM
B46 | 0.0311 nM
B47 | 0.0542 nM

Target: T1, human BCMA on BCMA expressing cell lines
Assay: cell-based or functional assay
Remark: another data set of the same source

Binder | TDCC Jeko1 EC50 | TDCC MOLP-8 EC50 | TDCC OPM-2 EC50
B1 | 0.0053 nM | 0.0015 nM | 0.0044 nM
B4 | 0.011 nM | 0.0033 nM | 0.012 nM
B11 | 0.011 nM | 0.0028 nM | 0.0097 nM
B14 | 0.0082 nM | 0.0035 nM | 0.01 nM
B18 | 0.015 nM | 0.0025 nM | 0.0069 nM
B23 | 0.0091 nM | 0.0024 nM | 0.0074 nM
B38 | 0.004 nM | 0.00094 nM | 0.0031 nM

Target: T2, human BCMA protein
Assay: affinity to human BCMA protein, method not stated

Binder | Kd
B1 | 4.18 nM
B2 | 16.8 nM
B3 | 15.8 nM
B4 | 6.53 nM
B5 | 25.7 nM
B6 | 7.15 nM
B7 | 21.9 nM
B8 | 20.5 nM
B9 | 27.5 nM
B10 | 18 nM
B11 | 6.77 nM
B12 | 18.4 nM
B13 | 7.09 nM
B14 | 6.73 nM
B15 | 20 nM
B16 | 7.5 nM
B17 | 19.3 nM
B18 | 6.27 nM
B19 | 7.06 nM
B20 | 23.3 nM
B21 | 34.4 nM
B22 | 19.6 nM
B23 | 6.31 nM
B24 | 16.3 nM

Binder | Kd
B25 | 9.51 nM
B26 | 7.06 nM
B27 | 7.12 nM
B28 | 5.44 nM
B29 | 25.2 nM
B30 | 17.6 nM
B31 | 15.6 nM
B32 | 23.3 nM
B33 | 15.2 nM
B34 | 6.83 nM
B35 | 13.3 nM
B36 | 21.4 nM
B37 | 31.1 nM
B38 | 2.86 nM
B39 | 7.06 nM
B40 | 6.9 nM
B41 | 7.76 nM
B42 | 25.2 nM
B43 | 5.31 nM
B44 | 24.8 nM
B45 | 6.71 nM
B46 | 20.9 nM
B47 | 35.6 nM
